In US20260000597A1 (priority 2018, published 2026) one finds OD data, which are given here for 36 substances.

The target in the first assay is AchR (Homo sapiens, UniProt P02708). Description: ELISA of screened peptide phages on AchR versus streptavidin (OD450). In kind it is binding. Conditions: ELISA of selected 11-mer (L2) peptide phages on AchR, absorbance at 450 nm; Spep-2 positive control. Here is the method: The output phages for the 4th and 5th rounds of biopanning in Example 13-1 were inoculated to E. coli, and plated on the agar plates so as to form 100-200 plaques per plate. The plaques were inoculated on 1 ml of an SB liquid medium containing 50 μg/ml of ampicillin by using a sterile tip, and cultured with shaking at 37° C. for 5 hours, followed by the addition of 30 μl of helper phages, and then cultured at 37° C. and 200 rpm for one day. The culture was centrifuged at 12,000 rpm for 2 minutes to collect supernatant, and 2% BSA was added to the supernatant, and used for phage screening.
AchR, sequence (P02708 21-457): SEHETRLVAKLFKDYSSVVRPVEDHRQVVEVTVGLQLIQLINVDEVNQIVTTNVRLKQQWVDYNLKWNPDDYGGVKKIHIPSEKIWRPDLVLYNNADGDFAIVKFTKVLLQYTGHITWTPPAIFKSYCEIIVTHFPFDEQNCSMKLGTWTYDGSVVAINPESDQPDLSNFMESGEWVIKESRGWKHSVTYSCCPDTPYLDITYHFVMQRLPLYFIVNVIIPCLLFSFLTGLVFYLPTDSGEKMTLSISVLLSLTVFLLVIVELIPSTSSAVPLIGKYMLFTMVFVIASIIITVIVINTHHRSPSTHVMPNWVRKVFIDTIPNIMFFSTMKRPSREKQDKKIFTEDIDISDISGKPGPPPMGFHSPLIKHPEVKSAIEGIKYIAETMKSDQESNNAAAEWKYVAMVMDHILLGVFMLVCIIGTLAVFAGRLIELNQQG
In a 96-well ELISA plate, 5 μg/ml AchR or streptavidin was added at 50 μl per well, and left at 4° C. overnight. The next day, the solution in each well was discarded, followed by the addition of 2% BSA, and then blocked at room temperature for 2 hours. After the solution was all discarded, the wells were washed three times with Tris (20 mM, pH7). In addition, 100 μl of each of the phage solutions obtained from the above-prepared plaques was dispensed into wells and left at 30° C. for 1 hour. After the solution in the wells was all discarded, the wells were washed three times with Tris (20 mM, pH 7), and then the HRP-conjugated anti-M13 antibody diluted 1:2,000 was added at 100 μl per well, followed by culture at 30° C. for 1 hour. After the wells were washed three times with Tris (20 mM, pH7), 100 μl of tetramethylbenzidine was added to each well to induce a color development reaction, and then the reaction was stopped by the addition of 100 μl of 1M H2SO4, and the absorbance at 450 nm (OD450) was measured. The measured absorbance was converted into a ratio of AchR absorbance to streptavidin absorbance (AchR signal/streptavidin signal), and the results are shown in FIGS. 14 to 16.
A general note: ELISA stands for enzyme-linked immunosorbent assay.
Regarding “L2-34 (VMDRDRKWWWR; AchR binding peptide) [Peptide L2-34]”, the OD is 0.604. With “L2-121 (HETKPKKDGLR; AchR binding peptide) [Peptide L2-121]”, the OD is reported as 0.492. The same measure, in the same setting: the value for “L2-88 (NAMRTKRMSFK; AchR binding peptide) [Peptide L2-88]” was 0.744; that for “L2-119 (FCRRSKKIGRR; AchR binding peptide) [Peptide L2-119]” was 0.56; that for “L2-100 (MNYRCKRVQER; AchR binding peptide) [Peptide L2-100]” was 0.551. In turn, “L2-114 (QVTKSKRVAFK; AchR binding peptide) [Peptide L2-114]” gave an OD of 0.643. Turning to “L2-8 (FGHRGKKEWAR; AchR binding peptide) [Peptide L2-8]”, the OD is given as 0.739. “L2-115 (VRAKHRKSSLR; AchR binding peptide) [Peptide L2-115]” showed an OD of 0.837. “L2-143 (AIIKFRKVQWK; AchR binding peptide) [Peptide L2-143]”: the OD came out at 0.401. As for “L2-98 (LMLRGKRLTTK; AchR binding peptide) [Peptide L2-98]”, the OD was 0.626. “L2-159 (CNQKTKKIAEK; AchR binding peptide) [Peptide L2-159]” returned an OD of 0.696.

Staying with this assay, now noted: ELISA of selected 14-mer (L3) peptide phages on AchR, absorbance at 450 nm; Spep-2 positive control.
The substance “L3-124 (GAQRARKPVLRAVG; AchR binding peptide) [Peptide L3-124]” displayed an OD of 0.515. “L3-164 (QINRVKKSDAKFCT; AchR binding peptide) [Peptide L3-164]” came in with an OD of 0.746. Substance “L3-10 (AHGKDRRYVEKLEV; AchR binding peptide) [Peptide L3-10]” displayed an OD of 0.769. Regarding “L3-153 (FHTKLRKPIPKIDM; AchR binding peptide) [Peptide L3-153]”, the OD stood at 0.768. “L3-121 (CDDKPKKTVVKLTW; AchR binding peptide) [Peptide L3-121]” had an OD of 0.655. As to “L3-175 (TCHKTKRSIMRATS; AchR binding peptide) [Peptide L3-175]”, the OD came out at 0.768. The same measure, in the same setting: the value for “L3-174 (SSGKWKRPHAKYIV; AchR binding peptide) [Peptide L3-174]” was 0.783; that for “L3-22 (HSLKTRKSAFKSNT; AchR binding peptide) [Peptide L3-22]” was 0.83.

Turning to “L3-115 (NDPRLRKHNHRCCT; AchR binding peptide) [Peptide L3-115]”, the OD worked out at 0.685.

Substance “L3-64 (HEIKQKKYFHRGHD; AchR binding peptide) [Peptide L3-64]” registered an OD of 0.799. “L3-104 (ASVRDRKMGYKSDG; AchR binding peptide) [Peptide L3-104]” displayed an OD of 0.57. In turn, “L3-176 (MIGKCRKCGTKCYA; AchR binding peptide) [Peptide L3-176]” came in with an OD of 0.739. As for “L3-130 (EHSKHRKDLFRMVG; AchR binding peptide) [Peptide L3-130]”, the OD is 0.531.

Still in this assay, the particulars now being: phage ELISA, absorbance at 450 nm, 5 μg/ml AchR; 4th and 5th round biopanning phages.
In turn, KSKRHHEK [Peptide L1-69] returned an OD of 0.474. Same read-out and setting: as for RTKRWQLK [Peptide L1-94], the figure is 0.496. On to RPRRGHQK [Peptide L1-24], for which the OD is reported as 0.742.

RIRRWWVR [Peptide L1-82] showed an OD of 0.596. KDKRPECK [Peptide L1-133] returned an OD of 0.504. For RWRRSVIK [Peptide L1-106], the OD is reported as 0.417. The substance RGKKQLSK [Peptide L1-121] registered an OD of 0.354.

Consider RCKKNPEK [Peptide L1-66], for which the OD was found to be 0.605. Still for that read-out and setting: as for KTKRVDPK [Peptide L1-102], the figure is 0.507. Turning to RGKKPWWR [Peptide L1-104], the OD came out at 0.46.

KMRKFYSK [Peptide L1-189] gave an OD of 0.616. The substance RFRKPTDR [Peptide L1-127] had an OD of 0.412.
